Test results: patent publication US20090068637A1 (published 2009)

Experiments:
[1] = biological target: T1, fusion protein HBc-D125 (HBV); experiment: ELISA, fusion protein coated at 10 ug/ml
T1 chain: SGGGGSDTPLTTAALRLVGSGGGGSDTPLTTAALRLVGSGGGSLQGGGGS

[2] = biological target: T2, fusion protein HBc-D123 (HBV); experiment: ELISA, fusion protein coated at 10 ug/ml
T2 chain: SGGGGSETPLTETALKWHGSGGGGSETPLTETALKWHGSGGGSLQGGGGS

[3] = biological target: T3, HA of H5N1 virus strain GD3 (avian influenza virus H5N1); experiment: cell-based or functional assay
[4] = biological target: T4, HA of H5N1 virus strain IDN1.1 (avian influenza virus H5N1); experiment: cell-based or functional assay
[5] = biological target: T5, HA of H5N1 virus strain MIX1 (avian influenza virus H5N1); experiment: cell-based or functional assay
[6] = biological target: T6, HA of H5N1 virus strain MIX2 (avian influenza virus H5N1); experiment: cell-based or functional assay
[7] = biological target: T7, HA of H5N1 virus strain HN1 (avian influenza virus H5N1); experiment: cell-based or functional assay
[8] = biological target: T8, HA of H5N1 virus strain MB1 (avian influenza virus H5N1); experiment: cell-based or functional assay
[9] = biological target: T9, HA of H5N1 virus strain IDN4 (avian influenza virus H5N1); experiment: cell-based or functional assay
[10] = biological target: T10, HA of H5N1 virus strain GD1 (avian influenza virus H5N1); experiment: cell-based or functional assay
[11] = biological target: T11, HA of H5N1 virus strain IDN3 (avian influenza virus H5N1); experiment: cell-based or functional assay
[12] = biological target: T12, HA of H5N1 virus strain VTM3 (avian influenza virus H5N1); experiment: cell-based or functional assay
[13] = biological target: T13, HA of H5N1 virus strain VTM4 (avian influenza virus H5N1); experiment: cell-based or functional assay
[14] = biological target: T14, HA of H5N1 virus strain IDN5 (avian influenza virus H5N1); experiment: cell-based or functional assay
[15] = biological target: T15, HA of H5N1 virus strain MIX3 (avian influenza virus H5N1); experiment: cell-based or functional assay
[16] = biological target: T16, HA of H5N1 virus strain YN1 (avian influenza virus H5N1); experiment: cell-based or functional assay
[17] = biological target: T17, HA of H5N1 virus strain VNM2.1 (avian influenza virus H5N1); experiment: cell-based or functional assay
[18] = biological target: T18, HA of H5N1 virus strain GD2 (avian influenza virus H5N1); experiment: cell-based or functional assay
[19] = biological target: T19, HA of H5N1 virus strain HN2 (avian influenza virus H5N1); experiment: cell-based or functional assay
[20] = biological target: T20, HA of H5N1 virus strain MB2 (avian influenza virus H5N1); experiment: cell-based or functional assay
[21] = biological target: T21, HA of H5N1 virus strain VTM2 (avian influenza virus H5N1); experiment: cell-based or functional assay
[22] = biological target: T22, HA of H5N1 virus strain VTM1.1 (avian influenza virus H5N1); experiment: cell-based or functional assay
[23] = biological target: T23, HA of H5N1 virus strain IDN2 (avian influenza virus H5N1); experiment: cell-based or functional assay
[24] = biological target: T24, fusion protein HBc-124 (HBV); experiment: indirect ELISA, fusion protein coated at 10 ug/ml, 12 mAb tested
T24 chain: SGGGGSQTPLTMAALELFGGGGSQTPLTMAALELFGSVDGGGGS

[25] = biological target: T25, fusion protein HBc-128 (HBV); experiment: as above
T25 chain: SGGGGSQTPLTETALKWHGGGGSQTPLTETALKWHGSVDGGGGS

[26] = biological target: T26, fusion protein HBc-122 (HBV); experiment: as above
T26 chain: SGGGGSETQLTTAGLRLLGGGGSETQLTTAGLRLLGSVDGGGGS

[27] = biological target: T3, HA of H5N1 virus strain GD3; experiment: cell-based or functional assay; remark: listed apart in the source
[28] = biological target: T4, HA of H5N1 virus strain IDN1.1; experiment: cell-based or functional assay; remark: listed apart in the source
[29] = biological target: T5, HA of H5N1 virus strain MIX1; experiment: cell-based or functional assay; remark: listed apart in the source
[30] = biological target: T6, HA of H5N1 virus strain MIX2; experiment: cell-based or functional assay; remark: listed apart in the source
[31] = biological target: T7, HA of H5N1 virus strain HN1; experiment: cell-based or functional assay; remark: listed apart in the source
[32] = biological target: T8, HA of H5N1 virus strain MB1; experiment: cell-based or functional assay; remark: listed apart in the source
[33] = biological target: T9, HA of H5N1 virus strain IDN4; experiment: cell-based or functional assay; remark: listed apart in the source
[34] = biological target: T10, HA of H5N1 virus strain GD1; experiment: cell-based or functional assay; remark: listed apart in the source
[35] = biological target: T11, HA of H5N1 virus strain IDN3; experiment: cell-based or functional assay; remark: listed apart in the source
[36] = biological target: T12, HA of H5N1 virus strain VTM3; experiment: cell-based or functional assay; remark: listed apart in the source
[37] = biological target: T13, HA of H5N1 virus strain VTM4; experiment: cell-based or functional assay; remark: listed apart in the source
[38] = biological target: T14, HA of H5N1 virus strain IDN5; experiment: cell-based or functional assay; remark: listed apart in the source
[39] = biological target: T15, HA of H5N1 virus strain MIX3; experiment: cell-based or functional assay; remark: listed apart in the source
[40] = biological target: T16, HA of H5N1 virus strain YN1; experiment: cell-based or functional assay; remark: listed apart in the source
[41] = biological target: T17, HA of H5N1 virus strain VNM2.1; experiment: cell-based or functional assay; remark: listed apart in the source
[42] = biological target: T18, HA of H5N1 virus strain GD2; experiment: cell-based or functional assay; remark: listed apart in the source
[43] = biological target: T19, HA of H5N1 virus strain HN2; experiment: cell-based or functional assay; remark: listed apart in the source
[44] = biological target: T20, HA of H5N1 virus strain MB2; experiment: cell-based or functional assay; remark: listed apart in the source
[45] = biological target: T21, HA of H5N1 virus strain VTM2; experiment: cell-based or functional assay; remark: listed apart in the source
[46] = biological target: T22, HA of H5N1 virus strain VTM1.1; experiment: cell-based or functional assay; remark: listed apart in the source
[47] = biological target: T23, HA of H5N1 virus strain IDN2; experiment: cell-based or functional assay; remark: listed apart in the source

B1: monoclonal antibody 8H5 (antibody, V domains shown)
VH: QVQLQQSGAELMKPGASVKISCKATGYTFSNYWIEWIKQRPGHGLEWIGEILPGSDRTNYNGKFKGKATFTADTSSNTAHMQLSSLTSEDSAVYYCANRYDGYYFGLDYWGQGTSVAVSS
VL: EIVLTQSPAIMSASLGEKVTMSCRASSSVNFVYWYQQRSDASPKLLIYYSSNLAPGVPPRFSGSGSGNSYSLTISGLEGEDAATYYCQHFTSSPYTFGGGTNLEIKR
[1]
  binding result: binds
[2]
  binding result: binds
[3]
  HI titer: 12800 titer
[4]
  HI titer: 12800 titer
[5]
  HI titer: 12800 titer
[6]
  HI titer: 6400 titer
[7]
  HI titer: 12800 titer
[8]
  HI titer: 3200 titer
[9]
  HI titer: 12800 titer
[10]
  HI titer: 12800 titer
[11]
  HI titer: 3200 titer
[12]
  HI titer: 6400 titer
[13]
  HI titer: 1600 titer
[14]
  HI titer: 6400 titer
[15]
  HI titer: 12800 titer
[16]
  HI titer: 3200 titer
[17]
  HI titer: 6400 titer
[18]
  HI titer: 12800 titer
[19]
  HI titer: 3200 titer
[20]
  HI titer: 6400 titer
[21]
  HI titer: 6400 titer
[22]
  HI titer: 12800 titer
[23]
  HI titer: 1600 titer
[24]
  binding result: binds
[25]
  binding result: binds
[26]
  binding result: binds
[27]
  Neutralization titer: 12800 titer
[28]
  Neutralization titer: 12800 titer
[29]
  Neutralization titer: 12800 titer
[30]
  Neutralization titer: 6400 titer
[31]
  Neutralization titer: 12800 titer
[32]
  Neutralization titer: 6400 titer
[33]
  Neutralization titer: 12800 titer
[34]
  Neutralization titer: 12800 titer
[35]
  Neutralization titer: 12800 titer
[36]
  Neutralization titer: 12800 titer
[37]
  Neutralization titer: 1600 titer
[38]
  Neutralization titer: 6400 titer
[39]
  Neutralization titer: 12800 titer
[40]
  Neutralization titer: 6400 titer
[41]
  Neutralization titer: 3200 titer
[42]
  Neutralization titer: 12800 titer
[43]
  Neutralization titer: 6400 titer
[44]
  Neutralization titer: 12800 titer
[45]
  Neutralization titer: 800 titer
[46]
  Neutralization titer: 1600 titer
[47]
  Neutralization titer: 6400 titer

B2: monoclonal antibody 2F2 (antibody, V domains shown)
VH: QVQLKESGPGLVAPSQRLSITCTVSGFSLTGYGVHWIRQSPGKGLEWLGMIWAEGRTDYNSVLKSRLSINKDNSRSQVFLEMNSLQTDDTARYYCAREVITTEAWYFDVWGQGTSVTES
VL: DIVMTQSPATLSVTPGDRVSLSCRASQSISDYLYWYQQKSHESPRLLIKYASQSISGIPSRFSGSGSGSDFTLTINSVEPEDVGMYYCQNGHTFPLTFGAGTKLEIKR
[3]
  HI titer: 12800 titer
[4]
  HI titer: 12800 titer
[5]
  HI titer: < 100 titer
[6]
  HI titer: < 100 titer
[7]
  HI titer: 6400 titer
[8]
  HI titer: < 100 titer
[9]
  HI titer: 12800 titer
[10]
  HI titer: 12800 titer
[11]
  HI titer: 1600 titer
[12]
  HI titer: 12800 titer
[13]
  HI titer: 6400 titer
[14]
  HI titer: 12800 titer
[15]
  HI titer: 12800 titer
[16]
  HI titer: 800 titer
[17]
  HI titer: 200 titer
[18]
  HI titer: 12800 titer
[19]
  HI titer: 1600 titer
[20]
  HI titer: 6400 titer
[21]
  HI titer: 3200 titer
[22]
  HI titer: 12800 titer
[23]
  HI titer: 800 titer
[27]
  Neutralization titer: 12800 titer
[28]
  Neutralization titer: 12800 titer
[29]
  Neutralization titer: 100 titer
[30]
  Neutralization titer: 100 titer
[31]
  Neutralization titer: 12800 titer
[33]
  Neutralization titer: 12800 titer
[34]
  Neutralization titer: 12800 titer
[36]
  Neutralization titer: 12800 titer
[37]
  Neutralization titer: 12800 titer
[38]
  Neutralization titer: 12800 titer
[39]
  Neutralization titer: 12800 titer
[41]
  Neutralization titer: 12800 titer
[42]
  Neutralization titer: 12800 titer
[43]
  Neutralization titer: 12800 titer
[44]
  Neutralization titer: 12800 titer
[45]
  Neutralization titer: 12800 titer
[46]
  Neutralization titer: 1600 titer
[47]
  Neutralization titer: 12800 titer
